Test results taken from US20150266954A1 (Eli Lilly, published 2015).

T1: human IL-4 (human, UniProt P05112 25-153)
T1 sequence (looked up): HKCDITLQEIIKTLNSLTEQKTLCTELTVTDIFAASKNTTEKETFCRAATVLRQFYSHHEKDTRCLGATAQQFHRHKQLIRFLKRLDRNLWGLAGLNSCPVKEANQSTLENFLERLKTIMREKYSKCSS

T2: human IL-7 (human, UniProt P13232 26-177)
T2 sequence (looked up): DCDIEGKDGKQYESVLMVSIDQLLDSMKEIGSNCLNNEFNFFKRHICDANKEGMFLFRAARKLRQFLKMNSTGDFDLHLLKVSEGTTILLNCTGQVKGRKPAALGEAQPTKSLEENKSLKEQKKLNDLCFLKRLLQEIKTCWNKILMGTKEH

B1: Ab327 (antibody, human IgG4 S228P, kappa, F234A L235A, V domains shown)
VH: QVQLVQSGAEVKKPGASVKVSCKASGYTFTDYWMHWVRQAPGQGLEWMGLIDTSDVYTIYNQKFKGRVTMTRDTSTSTVYMELSSLRSEDTAVYYCARYGPLAMDYWGQGTLVTVSS
VL: DIQMTQSPSSLSASVGDRVTITCRASQDISNYLNWYQQKPGKAPKLLIYYTSRLHSGVPSRFSGSGSGTDFTLTISSLQPEDFATYYCQQFHTLRTFGGGTKVEIKR
modifications: N-linked glycosylation site at Asn294 of SEQ ID NO:3 may be glycosylated
notes: Engineered, humanized IgG4 (S225P, F231A/L232A) kappa antibody; expressed in HEK293 or CHO cells; also called final engineered humanized antibody; IL-21 antibody
B2: humanized antibody with CDRs derived from antibody 15M2, utilizing the 1-46 heavy chain human framework and O2 human light chain framework (antibody, V domains shown)
VH: QVQLVQSGAEVKKPGASVKVSCKASGYTFTDYWMHWVRQAPGQGLEWMGLIDTSDSYTIYNQKFKGRVTMTRDTSTSTVYMELSSLRSEDTAVYYCARYGPLAMDYWGQGTLVTVSS
VL: DIQMTQSPSSLSASVGDRVTITCRASQDISNYLNWYQQKPGKAPKLLIYYTSRLHSGVPSRFSGSGSGTDFTLTISSLQPEDFATYYCQQFNTLRTFGGGTKVEIK
notes: Human IgG4 expression vectors; also called the humanized antibody
B3: engineered antibody containing both heavy chain Asp55Glu and light chain Asn92His mutations (antibody, V domains shown)
VH: QVQLVQSGAEVKKPGASVKVSCKASGYTFTDYWMHWVRQAPGQGLEWMGLIDTSESYTIYNQKFKGRVTMTRDTSTSTVYMELSSLRSEDTAVYYCARYGPLAMDYWGQGTLVTVSS
VL: DIQMTQSPSSLSASVGDRVTITCRASQDISNYLNWYQQKPGKAPKLLIYYTSRLHSGVPSRFSGSGSGTDFTLTISSLQPEDFATYYCQQFHTLRTFGGGTKVEIK
notes: Human IgG4

Legend:
[1] = biological target: T1, human IL-4; assay: ELISA, Ab327 captured on plate, biotinylated cytokine
Experimental: (§1) The objective of this study was to determine the binding specificity of Ab327 to human IL-21 as compared with the other members of the common-gamma (γc) chain receptor cytokines. The cytokine receptor γc-chain family consists of six members, IL-2, IL-4, IL-7, IL-9, IL-15, and IL-21. All members of this family signal through receptor complexes that contain the γc subunit. The specificity of Ab327 for binding to other human γc chain cytokine family members was determined using an ELISA. Briefly, Ab327 was captured on an ELISA plate coated with goat anti-human kappa IgG. Cytokines labeled with biotin titrated from 100 nM-780 pM were then added to the plate for 1 hour at 37° C. and any bound cytokine was detected using Neutravidin labeled with alkaline phosphatase. Commercially available mouse monoclonal antibody to IL-2 and goat polyclonal antibodies to IL-4, IL-7, IL-9 and IL-15 captured with donkey anti-goat IgG gave positive signals after binding the biotinylated cytokines and detection with Neutravidin.

[2] = biological target: human IL-15 (human, UniProt P40933 49-162); assay: as above
Experimental: as §1

[3] = biological target: T2, human IL-7; assay: as above
Experimental: as §1

[4] = biological target: human IL-2 (human, UniProt P60568 21-153); assay: as above
Experimental: as §1

[5] = biological target: human IL-9 (human, UniProt P15248 19-144); assay: as above
Experimental: as §1

[6] = biological target: T3, human IL-21 (human, UniProt Q9HBE4 32-162); assay: cell-based or functional assay
[7] = biological target: T4, cynomolgus monkey IL-21 (cynomolgus monkey, UniProt Q9HBE4 32-162 (human entry)); assay: cell-based or functional assay
[8] = biological target: T3, human IL-21; assay: cell-based or functional assay; remark: listed apart in the source
[9] = biological target: T3, human IL-21; assay: KinExA solution equilibrium binding, 37 C, n=3
Experimental: (§2) Ab327 is an engineered, humanized monoclonal IgG4 antibody that binds and neutralizes human IL-21. The purpose of this study was to determine the binding affinity of Ab327 for human, cynomolgus monkey, mouse, rat, and rabbit IL-21 (the sequences are given below). […] KinExA solution equilibrium binding experiments were performed using a fixed antibody concentration protocol and 2-fold serial dilutions of IL-21. Samples were equilibrated at 37° C. for 6-36 hours prior to analysis. Free antibody in the equilibrated samples was detected using a Dylight 649-conjugated anti-human IgG Fc polyclonal antibody. The resulting percent free antibody versus antigen concentration data were fit to an “affinity, standard” binding model using the KinExA Pro software, and the best fit binding affinity value (KD) was determined
(§3) The average KD from three independent experiments along with the standard deviation (human, cynomolgus monkey, mouse, and rat) or from a single determination (rabbit IL-21) is summarized in Table 3 below (apparent solution equilibrium binding affinity (KD) of Ab327).

[10] = biological target: mouse IL-21 (mouse, UniProt Q9ES17 18-146); assay: KinExA solution equilibrium binding, 37 C, n=3
Experimental: as §2, §3

[11] = biological target: rat IL-21 (rat, UniProt A3QPB9 18-146); assay: KinExA solution equilibrium binding, 37 C, n=3
Experimental: as §2, §3

[12] = biological target: T4, cynomolgus monkey IL-21; assay: KinExA solution equilibrium binding, 37 C, n=3
Experimental: as §2, §3

[13] = biological target: T4, cynomolgus monkey IL-21; assay: assay not named; cynomolgus monkey IL-21
[14] = biological target: T3, human IL-21; assay: cell-based or functional assay; remark: listed apart in the source
[15] = biological target: T3, human IL-21; assay: assay not named; human IL-21
[16] = biological target: T3, human IL-21; assay: assay not named

T3 sequence (Q9HBE4 32-162): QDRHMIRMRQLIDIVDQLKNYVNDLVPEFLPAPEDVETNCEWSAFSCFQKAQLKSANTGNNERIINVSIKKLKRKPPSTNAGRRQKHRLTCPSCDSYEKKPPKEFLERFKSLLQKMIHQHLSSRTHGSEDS
T4 sequence (Q9HBE4 other isoform, or with tags, fused parts or gaps): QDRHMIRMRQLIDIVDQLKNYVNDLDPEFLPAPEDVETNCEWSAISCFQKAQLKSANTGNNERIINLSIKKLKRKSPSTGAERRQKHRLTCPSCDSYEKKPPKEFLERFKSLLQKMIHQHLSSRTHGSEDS
Sequence of human IL-9 (P15248 19-144 limits assumed): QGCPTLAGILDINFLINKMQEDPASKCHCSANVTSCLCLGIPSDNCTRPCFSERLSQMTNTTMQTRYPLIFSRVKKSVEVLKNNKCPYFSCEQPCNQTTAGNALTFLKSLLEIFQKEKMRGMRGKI
Sequence of human IL-2 (P60568 21-153 limits assumed): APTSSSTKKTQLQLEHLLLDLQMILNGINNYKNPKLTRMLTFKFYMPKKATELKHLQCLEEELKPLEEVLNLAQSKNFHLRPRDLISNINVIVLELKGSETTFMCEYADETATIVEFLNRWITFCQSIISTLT
Sequence of rat IL-21 (A3QPB9 18-146): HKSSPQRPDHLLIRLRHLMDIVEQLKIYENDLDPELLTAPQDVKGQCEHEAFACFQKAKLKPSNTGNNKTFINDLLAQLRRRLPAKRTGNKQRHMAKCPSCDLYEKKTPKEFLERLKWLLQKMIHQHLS
Sequence of human IL-15 (P40933 49-162 limits assumed): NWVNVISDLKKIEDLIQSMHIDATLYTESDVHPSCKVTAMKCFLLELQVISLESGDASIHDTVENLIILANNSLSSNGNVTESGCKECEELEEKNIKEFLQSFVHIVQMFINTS

Binder	binding result [1]	binding result [2]	binding result [3]	binding result [4]	binding result [5]	IC50, IM9 pan-STAT-luciferase reporter assay, IL-21 at 66.67 pM [6]	IC50, IM9 pan-STAT-luciferase reporter assay, IL-21 at 66.67 pM [7]	fold increase of plasma cells (CD38 high, IgD low), donor 1, 26.7 nM antibody (IL-21 without antibody: 176) [8]	fold increase of plasma cells (CD38 high, IgD low), donor 2, 26.7 nM antibody (IL-21 without antibody: 114) [8]	fold increase of plasma cells (CD38 high, IgD low), donor 3, 26.7 nM antibody (IL-21 without antibody: 47) [8]	fold increase of plasma cells (CD38 high, IgD low), donor 4, 26.7 nM antibody (IL-21 without antibody: 68) [8]	fold increase of plasma cells (CD38 high, IgD low), donor 5, 26.7 nM antibody (IL-21 without antibody: 22) [8]	Kd [9]	Kd [10]	Kd [11]	Kd [12]	Kd [13]	IC50, IL-21-induced proliferation of primary human B cells (3H-thymidine uptake) [14]	Kd [15]	Kd [16]
B1	no binding (tested: 100 nM)	no binding (tested: 100 nM)	no binding (tested: 100 nM)	no binding (tested: 100 nM)	no binding (tested: 100 nM)	46.7 pM	48.3 pM	11.7 fold	3.38 fold	7.81 fold	6.87 fold	3.64 fold	0.8 pM	240000 pM	230000 pM	0.3 pM	~0.5 pM	1150 pM	~0.5 pM	–
B2	–	–	–	–	–	–	–	–	–	–	–	–	–	–	–	–	–	–	–	~0.5 pM
B3	–	–	–	–	–	–	–	–	–	–	–	–	–	–	–	–	~2 pM	–	~2 pM	–
